Measured values published in patent publication US20190352387A1 (Chugai, published 2019).
Blank lines part the entries; values can stand above or below the binder they belong to.

Experiments:
[1] = biological target: T1, Recombinant human sclerostin (human, UniProt Q9BQB4 24-213); assay: SPR (Biacore), dissociation at pH 5.8 of complex formed at pH 7.4
T1 construct: Whole entry as named; Secreted recombinant protein purified from FreeStyle293-F conditioned medium; also called human-SOST; Human SOST
T1 sequence: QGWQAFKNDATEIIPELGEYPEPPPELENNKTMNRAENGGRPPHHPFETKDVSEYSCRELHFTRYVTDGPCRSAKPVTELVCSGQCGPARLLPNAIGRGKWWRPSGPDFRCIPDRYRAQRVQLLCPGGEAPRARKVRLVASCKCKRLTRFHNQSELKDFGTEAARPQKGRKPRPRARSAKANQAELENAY
Description: (§1) The affinity of anti-sclerostin variants binding to human, cynomolgus monkey (cyno), rat, or mouse sclerostin at pH 7.4 and pH 5.8 were determined at 37 degrees C. using Biacore T200 instrument (GE Healthcare). Anti-human Fc (GE Healthcare) was immobilized onto all flow cells of a CM4 sensor chip using amine coupling kit (GE Healthcare). All antibodies and analytes were prepared in ACES pH7.4 or pH 5.8 buffer containing 20 mM ACES, 150 mM NaCl, 1.2 mM CaCl₂, 0.05% Tween 20, 0.005% NaN₃. Each antibody was captured onto the sensor surface by anti-human Fc. […] Sensor surface was regenerated each cycle with 3M MgCl₂.
(§2) The pH dependent interaction assessment was determined by a modified Biacore assay. Briefly, an additional dissociation phase at pH5.8 was integrated into the Biacore assay immediately after dissociation phase at pH7.4. This is to assess the pH-dependent dissociation between antibody and antigen from the complexes formed at pH7.4. The dissociation rate at pH5.8 buffer was determined by processing and fitting data using Scrubber 2.0 (BioLogic Software) curve fitting software.

[2] = biological target: T1, Recombinant human sclerostin; assay: cell-based or functional assay
[3] = biological target: T2, Recombinant mouse sclerostin (mouse, UniProt Q99P68 24-211); assay: SPR (Biacore T200), 37 C, dissociation at pH 5.8 of complex formed at pH 7.4
T2 construct: Whole entry as named; also called mouse-SOST
T2 sequence: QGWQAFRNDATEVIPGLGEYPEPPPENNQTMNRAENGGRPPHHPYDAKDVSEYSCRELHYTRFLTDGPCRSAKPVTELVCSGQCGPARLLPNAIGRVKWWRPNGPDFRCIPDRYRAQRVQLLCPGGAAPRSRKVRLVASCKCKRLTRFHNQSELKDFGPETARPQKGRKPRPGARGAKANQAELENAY
Description: as §1, §2

[4] = biological target: T3, Recombinant rat sclerostin (rat, UniProt Q99P67 29-213); assay: as above
T3 construct: Whole entry as named; also called rat-SOST
T3 sequence: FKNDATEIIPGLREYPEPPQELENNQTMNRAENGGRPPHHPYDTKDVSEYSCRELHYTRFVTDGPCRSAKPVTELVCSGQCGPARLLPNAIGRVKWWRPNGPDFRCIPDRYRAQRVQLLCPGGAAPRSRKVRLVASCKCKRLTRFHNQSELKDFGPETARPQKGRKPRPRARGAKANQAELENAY
Description: as §1, §2

[5] = biological target: T4, Recombinant cynomolgus monkey sclerostin (cynomolgus monkey, UniProt Q9BG78 24-213 (Chlorocebus aethiops entry)); assay: as above
T4 construct: Whole entry as named; expressed and purified as the human counterpart; also called cyno-SOST; cyno SOST
T4 chain: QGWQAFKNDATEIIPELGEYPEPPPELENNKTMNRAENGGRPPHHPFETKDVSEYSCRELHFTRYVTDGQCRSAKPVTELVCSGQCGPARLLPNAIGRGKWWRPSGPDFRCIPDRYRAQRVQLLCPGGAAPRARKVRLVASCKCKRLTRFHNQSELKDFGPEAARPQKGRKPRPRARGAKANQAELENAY
Description: as §1, §2

[6] = biological target: T1, Recombinant human sclerostin; assay: as above
Description: as §1, §2

[7] = biological target: T2, Recombinant mouse sclerostin; assay: cell-based or functional assay
[8] = biological target: T2, Recombinant mouse sclerostin; assay: cell-based or functional assay; remark: listed apart in the source
[9] = biological target: T4, Recombinant cynomolgus monkey sclerostin; assay: cell-based or functional assay
[10] = biological target: T1, Recombinant human sclerostin; assay: SPR; captured antibody (SG1/SK1 constant regions), recombinant human SOST as analyte; response normalised by the capture level of the antibody [panel A-A-B]
[11] = biological target: T1, Recombinant human sclerostin; assay: SPR; captured antibody (SG1/SK1 constant regions), recombinant human SOST as analyte; response normalised by the capture level of the antibody [panel A-B-B]
[12] = biological target: T1, Recombinant human sclerostin; assay: SPR; captured antibody (SG1/SK1 constant regions), recombinant human SOST as analyte; response normalised by the capture level of the antibody [panel B-A-B]
[13] = biological target: T1, Recombinant human sclerostin; assay: SPR; captured antibody (SG1/SK1 constant regions), recombinant human SOST as analyte; response normalised by the capture level of the antibody [panel B-B-A]

B1: amH848/bsH638/abL152 (bispecific antibody)
heavy 1: not shown
heavy 2: not shown
VL: DIQMTQSPSSLSASVGDRVTITCRASEGIHDALAWYQQKPGKAPKLLIYWASTLESGVPSRFSGSGSGTDFTLTISSLQPEDFATYYCQQGDTLPYTFGGGTKVEIK
notes: Biparatopic, common light chain
koff [1]: 0.1 s⁻¹

B4: mabA_NpH1 (antibody, V domains shown)
VH: EVQLVQSGAEVKKPGASVKVSCKASGYTFTDYNMHWVRQAPGQGLEWMGEINPNSGGAGYNQKFKGRVTMTTDTSTSTAYMELRSLRSDDTAVYYCARLGYDDIYDDWYFHVWGQGTTVTVSS
VL: DIQMTQSPSSLSASVGDRVTITCRASQDISNYLNWYQQKPGKAPKLLIYHTSRLLSGVPSRFSGSGSGTDFTLTISSLQPEDFATYYCQQGDTLPYTFGGGTKVEIK
koff [5]: 0.00182 s⁻¹ | koff [3]: 0.00191 s⁻¹ | koff [6]: 0.00214 s⁻¹ | koff [4]: 0.000805 s⁻¹

B5: amH852/bsH638/abL152 (bispecific antibody)
heavy 1: not shown
heavy 2: not shown
VL: DIQMTQSPSSLSASVGDRVTITCRASEGIHDALAWYQQKPGKAPKLLIYWASTLESGVPSRFSGSGSGTDFTLTISSLQPEDFATYYCQQGDTLPYTFGGGTKVEIK
notes: as for B1
IC50 (read off the curve); Wnt1-induced TCF/LEF luciferase reporter in HEK293T cells, % Inhibition of human SOST [2]: ~10 µg/mL | koff [1]: 0.028 s⁻¹

B6: mabB//mabA_pH2-BS01 (bispecific antibody, human IgG1, kappa)
heavy 1: QVQLVQSGAEVKKPGASVKVSCKVSGFPIKHHFQHWVRQAPGKGLEWMGWSDPEIGDTEYASKFQGRVTMTEDTSTDTAYMELSSLRSEDTAVYYCATGHTTYKFDFWGQGTTVTVSSASTKGPSVFPLAPSSRSTSESTAALGCLVKDYFPEPVTVSWNSGALTSGVHTFPAVLQSSGLYSLSSVVTVPSSSLGTKTYTCNVDHKPSNTKVDKRVEPKSCDKTHTCPPCPAPELLGGPSVFLFPPKPKDTLMISRTPEVTCVVVDVSQEDPEVQFNWYVDGVEVHNAKTKPREEQFNSTYRVVSVLTVLHQDWLNGKEYKCKVSNKGLPSSIEKTISKAKGQPREPQVYTLPPSREEMTKNQVSLTCLVKGFYPSDIAVEWESNGQPENNYKTTPPYLDSDGSFFLYSKLTVDKSRWQQGNVFSCSVMHEALHNHYTQESLSLSP
light 1: DIQMTQSPSSLSASVGDRVTITCKASQDVHTAVAWYQQKPGKAPKLLIYWASTRWTGVPSRFSGSGSGTDFTLTISSLQPEDFATYYCQQYSDYHWTFGGGTKVEIKRTVAAPSVFIFPPSDEQLKSGTASVVCLLNNFYPREAKVQWKVDNALQSGNSQESVTEQDSKDSTYSLSSTLTLSKADYEKHKVYACEVTHQGLSSPVTKSFNRGEC
heavy 2: EVQLVQSGAEVKKPGASVKVSCKASGYTFTDYNMHWVRQAPGQGLEWMGEINPHSGHAGYNQKFKGRVTMTTDTSTSTAYMELRSLRSDDTAVYYCARLHYDDIHDDWYFDVWGQGTTVTVSSASTKGPSVFPLAPSSRSTSESTAALGCLVKDYFPEPVTVSWNSGALTSGVHTFPAVLQSSGLYSLSSVVTVPSSSLGTKTYTCNVDHKPSNTKVDKRVEPKSCDKTHTCPPCPAPELLGGPSVFLFPPKPKDTLMISRTPEVTCVVVDVSQEDPEVQFNWYVDGVEVHNAKTKPREEQFNSTYRVVSVLTVLHQDWLNGKEYKCKVSNKGLPSSIEKTISKAKGQPREPQVYTLPPSRKEMTKNQVSLTCLVKGFYPSDIAVEWESNGQPENNYKTTPPYLDSDGSFFLYSKLTVDKSRWQQGNVFSCSVMHEALHNHYTQKSLSLSP
light 2: not shown
MFI of pHrodo-Red-labelled mouse sclerostin taken up into MDCK cells expressing human Fc gamma receptor IIB and human FcRn (flow cytometry) [7]: 1960 MFI | IC50 (read off the curve); Wnt1-induced TCF/LEF luciferase reporter in HEK293T cells, % Inhibition of mouse SOST [8]: ~9 µg/mL

B7: mabA-hG2 (antibody, human IgG2, kappa, V domains shown)
VH: EVQLVQSGAEVKKPGASVKVSCKASGYTFTDYNMHWVRQAPGQGLEWMGEINPNSGGAGYNQKFKGRVTMTTDTSTSTAYMELRSLRSDDTAVYYCARLGYDDIYDDWYFDVWGQGTTVTVSS
VL: DIQMTQSPSSLSASVGDRVTITCRASQDISNYLNWYQQKPGKAPKLLIYYTSRLLSGVPSRFSGSGSGTDFTLTISSLQPEDFATYYCQQGDTLPYTFGGGTKVEIKR
IC50 (read off the curve); Wnt1-induced TCF/LEF luciferase reporter in HEK293T cells, % Inhibition of monkey SOST [9]: ~4 µg/mL

B8: mabA heavy chain combined with light chain variant A-A-B (antibody, human IgG1, kappa, V domains shown)
VH: EVQLVQSGAEVKKPGASVKVSCKASGYTFTDYNMHWVRQAPGQGLEWMGEINPNSGGAGYNQKFKGRVTMTTDTSTSTAYMELRSLRSDDTAVYYCARLGYDDIYDDWYFDVWGQGTTVTVSS
VL: DIQMTQSPSSLSASVGDRVTITCRASQDISNYLNWYQQKPGKAPKLLIYYTSRLLSGVPSRFSGSGSGTDFTLTISSLQPEDFATYYCQQYSDYPWTFGGGTKVEIKR
notes: also called A-A-B with the mabA heavy chain
binding result [10]: no binding

B9: mabB heavy chain combined with light chain variant A-A-B (antibody, human IgG1, kappa, V domains shown)
VH: QVQLVQSGAEVKKPGASVKVSCKVSGFPIKDTFQHWVRQAPGKGLEWMGWSDPEIGDTEYASKFQGRVTMTEDTSTDTAYMELSSLRSEDTAVYYCATGDTTYKFDFWGQGTTVTVSS
VL: DIQMTQSPSSLSASVGDRVTITCRASQDISNYLNWYQQKPGKAPKLLIYYTSRLLSGVPSRFSGSGSGTDFTLTISSLQPEDFATYYCQQYSDYPWTFGGGTKVEIKR
notes: also called A-A-B with the mabB heavy chain
binding result [10]: binds

B11: mabB heavy chain combined with light chain variant B-A-B (antibody, human IgG1, kappa, V domains shown)
VH: QVQLVQSGAEVKKPGASVKVSCKVSGFPIKDTFQHWVRQAPGKGLEWMGWSDPEIGDTEYASKFQGRVTMTEDTSTDTAYMELSSLRSEDTAVYYCATGDTTYKFDFWGQGTTVTVSS
VL: DIQMTQSPSSLSASVGDRVTITCKASQDVHTAVAWYQQKPGKAPKLLIYYTSRLLSGVPSRFSGSGSGTDFTLTISSLQPEDFATYYCQQYSDYPWTFGGGTKVEIKR
notes: also called B-A-B with the mabB heavy chain
binding result [12]: binds

More lines, now with the values ahead:

IC50 (read off the curve); Wnt1-induced TCF/LEF luciferase reporter in HEK293T cells, % Inhibition of human SOST [2]: ~10 µg/mL
B2: amH852/bsH656/abL152 (bispecific antibody)
heavy 1: not shown
heavy 2: not shown
VL: DIQMTQSPSSLSASVGDRVTITCRASEGIHDALAWYQQKPGKAPKLLIYWASTLESGVPSRFSGSGSGTDFTLTISSLQPEDFATYYCQQGDTLPYTFGGGTKVEIK

koff [3]: 0.00805 s⁻¹ | koff [4]: 0.00486 s⁻¹
B3: mabA_pH2 (antibody, V domains shown)
VH: EVQLVQSGAEVKKPGASVKVSCKASGYTFTDYNMHWVRQAPGQGLEWMGEINPNSGHAGYNQKFKGRVTMTTDTSTSTAYMELRSLRSDDTAVYYCARLHYDHIYDDWYFDVWGQGTTVTVSS
VL: DIQMTQSPSSLSASVGDRVTITCRASHDISNYLNWYQQKPGKAPKLLIYYTSRLLSGVPSRFSGSGSGTDFTLTISSLQPEDFATYYCQQGDTLPYTFGGGTKVEIK

binding result [11]: binds
B10: mabB heavy chain combined with light chain variant A-B-B (antibody, human IgG1, kappa, V domains shown)
VH: QVQLVQSGAEVKKPGASVKVSCKVSGFPIKDTFQHWVRQAPGKGLEWMGWSDPEIGDTEYASKFQGRVTMTEDTSTDTAYMELSSLRSEDTAVYYCATGDTTYKFDFWGQGTTVTVSS
VL: DIQMTQSPSSLSASVGDRVTITCRASQDISNYLNWYQQKPGKAPKLLIYWASTRWTGVPSRFSGSGSGTDFTLTISSLQPEDFATYYCQQYSDYPWTFGGGTKVEIKR
notes: also called A-B-B with the mabB heavy chain

binding result [13]: binds
B12: mabB heavy chain combined with light chain variant B-B-A (antibody, human IgG1, kappa, V domains shown)
VH: QVQLVQSGAEVKKPGASVKVSCKVSGFPIKDTFQHWVRQAPGKGLEWMGWSDPEIGDTEYASKFQGRVTMTEDTSTDTAYMELSSLRSEDTAVYYCATGDTTYKFDFWGQGTTVTVSS
VL: DIQMTQSPSSLSASVGDRVTITCKASQDVHTAVAWYQQKPGKAPKLLIYWASTRWTGVPSRFSGSGSGTDFTLTISSLQPEDFATYYCQQGDTLPYTFGGGTKVEIKR
notes: also called B-B-A with the mabB heavy chain
